# Reference: patent US20220033460A1, “IDENTIFICATION AND USE OF T CELL EPITOPES IN DESIGNING DIAGNOSTIC AND THERAPEUTIC APPROACHES FOR COVID-19” (priority 2020, published 2022)
# Like-named read-outs stand apart in the source and are kept apart here.
# T1: I-Ab (mouse), P14434
# T1 chain 1: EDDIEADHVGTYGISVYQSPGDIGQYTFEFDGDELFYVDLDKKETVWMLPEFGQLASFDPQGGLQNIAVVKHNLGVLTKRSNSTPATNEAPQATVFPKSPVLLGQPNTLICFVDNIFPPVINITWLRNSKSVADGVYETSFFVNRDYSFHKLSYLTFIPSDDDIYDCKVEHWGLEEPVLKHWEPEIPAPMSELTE
# T1 chain 2: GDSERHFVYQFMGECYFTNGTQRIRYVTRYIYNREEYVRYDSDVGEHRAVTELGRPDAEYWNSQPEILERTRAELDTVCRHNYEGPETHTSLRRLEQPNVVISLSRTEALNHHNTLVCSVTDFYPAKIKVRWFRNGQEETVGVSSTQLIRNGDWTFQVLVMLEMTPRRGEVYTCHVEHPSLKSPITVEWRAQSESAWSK
# B1: TCR_93 (protein)
# chain 1: ILNVEQSPQSLHVQEGDSTNFTCSFPSSNFYALHWYRWETAKSPEALFVMTLNGDEKKKGRISATLNTKEGYSYLYIKGSQPEDSATYLCALDYGQNFVFGPGTRLSVLP
# chain 2: DGGITQSPKYLFRKEGQNVTLSCEQNLNHDAMYWYRQDPGQGLRLIYYSQIVNDFQKGDIAEGYSVSREKKESFPLTVTSAQKNPTAFYLCASSIGSREAFFGQGTRLTVV
# B2: TCR_74 (protein)
# chain 1: GQNIDQPTEMTATEGAIVQINCTYQTSGFNGLFWYQQHAGEAPTFLSYNVLDGLEEKGRFSSFLSRSKGYSYLLLKELQMKDSASYLCAVRDLGGQKLLFARGTMLKVDL
# chain 2: DAGVTQSPTHLIKTRGQQVTLRCSPKSGHDTVSWYQQALGQGPQFIFQYYEEEERQRGNFPDRFSGHQFPNYSSELNVNALLLGDSALYLCASSLGQGSPAGANVLTFGAGSRLTVL
# How the values were obtained:
# I-Ab (mouse), P14434 = target: T1, I-Ab (mouse), P14434; test: biochemically tested I-Ab binding affinity (method not told)
# DRB1*07:01 [1] = conditions: modification not given
# DRB1*15:01 [2] = conditions: modification not given
# [3] = target: SARS-CoV-2 peptide on HLA-A*02:01 (human); test: barcoded tetramer library on ex vivo CD8+ T cells, single-cell sequencing; T cell clone or line; conditions: chains Valpha:Vbeta
# DRB01*04:04 [4] = conditions: chains peptide; modification not given
# DRB01*15:01 [5] = conditions: chains peptide; modification not given
# DRB1*15:01 [6] = conditions: modification not given; remark: listed apart in the source
# DRB01*11:01 = conditions: chains peptide; modification not given
# DRB01*04:04 [7] = conditions: chains peptide; modification not given; remark: listed apart in the source
# DRB01*07:01 = conditions: chains peptide; modification not given
# DRB01*15:01 [8] = conditions: chains peptide; modification not given; remark: listed apart in the source
# DRB1*07:01 [9] = conditions: modification not given; remark: listed apart in the source
# [10] = target: M protein peptide on HLA-A*02:01 (human); test: barcoded tetramer library on ex vivo CD8+ T cells, single-cell sequencing; T cell clone or line; conditions: chains Valpha:Vbeta
binder,measurement,setting,value
AWENTTIDLTSEKPA (modifications not checked) […],IC50,"I-Ab (mouse), P14434",10 µM
AEIRASANLAATKMS [… (position 1016)],IC50,DRB1*07:01 [1],0.395 µM
same,IC50,DRB1*15:01 [2],0.578 µM
B1,No. of Cells,[3],2 cells
VILRGHLRIAGHHLGRCDIKDLP [SEQ ID NO 310],IC50,DRB01*04:04 [4],1.91 µM
same,IC50,DRB01*15:01 [5],5.43 µM
STPCNGVEGFNCYFP [… (position 477)],IC50,DRB1*15:01 [6],6.82 µM
GAVILRGHLRIAGHHLGR [SEQ ID NO 312],IC50,DRB01*11:01,0.383 µM
same,IC50,DRB01*04:04 [7],9.54 µM
same,IC50,DRB01*07:01,14.5 µM
same,IC50,DRB01*15:01 [8],3.22 µM
PQIITTDNTFVSGNC [… (position 1112)],IC50,DRB1*07:01 [9],7.37 µM
B2,No. of Cells,[10],2 cells
